Experimental data from US20090324593A1 (MacroGenics, published 2009).

B1: Humanized E16 huE16-3.1 (huE16HC T71A / huE16LC) (antibody, V domains shown)
VH: QVQLVQSGAEVKKPGASVKVSCKASGYTFTDYWIEWVRQAPGQGLEWMGDILCGTGRTRYNEKLKARVTMTADTSTSTAYMELRSLRSDDTAVYYCARSASYGDYADYWGQGTTVTVSS
VL: DIVMTQSPDSLAVSLGERATINCKASQDVSTAVAWYQQKPGQPPKLLIYWASTRHTGVPDRFSGSGSGTDFTLTISSLQAEDVAVYYCQQHYTTPLTFGQGTKLEIK
notes: also called huE16-3 (T71A)/huE16LC; huE16HC-2 T71A/huE16LC
B2: Humanized E16 huE16-3.2 (huE16HC T71A / huE16LC-2 Y49S) (antibody, V domains shown)
VH: QVQLVQSGAEVKKPGASVKVSCKASGYTFTDYWIEWVRQAPGQGLEWMGDILCGTGRTRYNEKLKARVTMTADTSTSTAYMELRSLRSDDTAVYYCARSASYGDYADYWGQGTTVTVSS
VL: DIVMTQSPDSLAVSLGERATINCKASQDVSTAVAWYQQKPGQPPKLLISWASTRHTGVPDRFSGSGSGTDFTLTISSLQAEDVAVYYCQQHYTTPLTFGQGTKLEIK
notes: also called hE16-3.2; huE16-2 (T71A)/huE16LC-2 (Y49S)
B3: Humanized E16 huE16-2.1 (huE16HC-2 V67A, M69F, T71A / huE16LC) (antibody, V domains shown)
VH: QVQLVQSGAEVKKPGASVKVSCKASGYTFTDYWIEWVRQAPGQGLEWMGDILCGTGRTRYNEKLKARATFTADTSTSTAYMELRSLRSDDTAVYYCARSASYGDYADYWGQGTTVTVSS
VL: DIVMTQSPDSLAVSLGERATINCKASQDVSTAVAWYQQKPGQPPKLLIYWASTRHTGVPDRFSGSGSGTDFTLTISSLQAEDVAVYYCQQHYTTPLTFGQGTKLEIK
B4: Humanized E16 huE16-2.2 (huE16HC-2 V67A, M69F, T71A / huE16LC-2 Y49S) (antibody, V domains shown)
VH: QVQLVQSGAEVKKPGASVKVSCKASGYTFTDYWIEWVRQAPGQGLEWMGDILCGTGRTRYNEKLKARATFTADTSTSTAYMELRSLRSDDTAVYYCARSASYGDYADYWGQGTTVTVSS
VL: DIVMTQSPDSLAVSLGERATINCKASQDVSTAVAWYQQKPGQPPKLLISWASTRHTGVPDRFSGSGSGTDFTLTISSLQAEDVAVYYCQQHYTTPLTFGQGTKLEIK

target: T1, WNV E-protein domain III (dIII) (West Nile Virus, UniProt Q9Q6P4 580-705); assay: antigen capture ELISA (sheet title: E9 captured E protein DIII), 2.5 ng/well domain III captured by mouse antibody E9, HRP anti-human IgG F(ab')2 detection
T1 construct: domain: Domain III; also called the antigen; the receptor
T1 sequence (looked up): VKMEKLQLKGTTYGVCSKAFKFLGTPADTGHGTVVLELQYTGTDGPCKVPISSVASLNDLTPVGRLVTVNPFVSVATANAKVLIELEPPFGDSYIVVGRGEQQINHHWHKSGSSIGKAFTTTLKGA
Method: Protocol for antibody-capture ELISA assay: 2.5 ng/well of dIII was captured on 96-well Maxisorp plates by mouse anti-WNV E-protein antibody E9 at room temperature for 2 hours. A serial of two-fold dilution of conditioned medium of chE16, huE16, huE16HC/ch2B6LC or chE16HC/huE16LC starting from 5 ng/well was added to each well. The plate was incubated at room temperature for 1 hour, then binding was detected by HRP conjugated F(ab′)₂ goat anti human IgG F(ab)′₂ specific secondary antibody (Jackson ImmunoResearch, Inc.) at 1:10,000 dilution. After incubation with the secondary antibody for approximately 45 minutes, the plate was developed using a TMB substrate. After 5 minutes incubation, the reaction was stopped by 1% H₂SO₄. The OD₄₅₀ nm was read by SOFTmax program. Between each step, the plates were washed 3 times with PBS/0.1% Tween20. Plates were blocked by 0.5% BSA in PBS/0.1% Tween 20 for 30 mins at room temperature before adding conditioned medium.
After three days in culture the amount of human IgG expressed was quantitated by ELISA. Binding to WNV E-protein domain III (dIII) was determined by ELISA and antibody-capture ELISA assays as described above.

EC50 (read off the curve), ~0.01 µg/mL:
B1
B2
B3
B4
